Assay [1] has as its target MHCI-related protein 1 (MR1) with β-2 microglobulin, biotinylated, loaded with model ligands (UniProt Q95460). Nature of the assay: SPR; biotinylated ligands (pMHCI, MR1, CD1) captured on streptavidin coupled to a CM5 chip; serial dilution of each CD8-Fc fusion injected; steady-state responses, 1:1 Langmuir fit; BIAcore T200, 25°C, PBS with 0.005% Tween 20. Background: In SPR one partner is held on a chip, and binding of the other changes the refractive index at the surface.

Assay [2] has as its target MHCI-related protein 1 (MR1) with β2m, loaded with 5-(2-oxopropylideneamino)-6-d-ribitylaminouracil (human) (UniProt Q95460). Nature of the assay: SPR; BIAcore T200, CM5 chip with streptavidin; biotinylated pMHCI, MR1 or CD1 captured; serial dilution of CD8-Fc fusion injected; 25°C, PBS with 0.005% Tween 20; steady-state responses, 1:1 Langmuir fit.
Assay [3] addresses MHCI-related protein 1 (MR1) with β2m, loaded with 6-formylpterin (human) (UniProt Q95460). The description is as above.
Assay [4] concerns the target MHCI-related protein 1 (MR1) with β2m, loaded with 5-formyl salicylic acid (human) (UniProt Q95460). Described as above.
Assay [5] concerns the target HLA-A*24:02 peptide-MHC class I (biotinylated pMHCI). As to the kind of experiment: SPR; biotinylated ligands (pMHCI, MR1, CD1) captured on streptavidin coupled to a CM5 chip; serial dilution of each CD8-Fc fusion injected; steady-state responses, 1:1 Langmuir fit; BIAcore T200, 25°C, PBS with 0.005% Tween 20.
For assay [6], the target named is HLA-A*03:01 with peptide […]. As to the kind of experiment: SPR.

Values joined by “and” are separate entries in the source; they are usually repeats but may differ in a detail not shown here. Equal values may be shown once.

Results on two substances are retold here after publication PMC11739670.

Broadly, the Kd is the constant that tells how readily two partners part at equilibrium. Lower therefore signals a tighter complex. As for “soluble human CD8αα-Fc homodimer (from UniProt P01732 22-182) (Fc fusion)”, the Kd is 250 µM in assay [1]; 248 µM and 274 µM in assay [2]; 248 µM and 280 µM in assay [3]; 222 µM and 236 µM in assay [4].

As to “soluble human CD8αβ-Fc heterodimer (from UniProt P01732 22-182; P10966 22-170) (Fc fusion)”, the Kd in assay [5] came to 230 µM; in assay [6], 127 µM.
